In PMC9812933:

Legend:
CheA (Escherichia coli) = CheA (Escherichia coli) (UniProt P07363); settings: cited from earlier work
[1] = molecular target: cytoplasmic fragment of the E coli Asp receptor (CF4Q) (E. coli); assay: co-sedimentation

Row | fraction of CheA bound [1] | Molecule | Kd (CheA (Escherichia coli))
1 |  | CheA (from UniProt P07363) | 490 nM
2 | 88% | chemotaxis histidine kinase (CheA) (enzyme) MSMDISDFYQTFFDEADELLADMEQHLLVLQPEAPDAEQLNAIFRAAHSIKGGAGTFGFSVLQETTHLMENLLDEARRGEMQLNTDIINLFLETKDIMQEQLDAYKQSQEPDAASFDYICQALRQLALEAKGETPSAVTRLSVVAKSEPQDEQSRSQSPRRIILSRLKAGEVDLLEEELGHLTTLTDVVKGADSLSAILPGDIAEDDITAVLCFVIEADQITFETVEVSPKISTPPVLKLAAEQAPTGRVEREKTTRSNESTSIRVAVEKVDQLINLVGELVITQSMLAQRSSELDPVNHGDLITSMGQLQRNARDLQESVMSIRMMPMEYVFSRYPRLVRDLAGKLGKQVELTLVGSSTELDKSLIERIIDPLTHLVRNSLDHGIELPEKRLAAGKNSVGNLILSAEHQGGNICIEVTDDGAGLNRERILAKAASQGLTVSENMSDDEVAMLIFAPGFSTAEQVTDVSGRGVGMDVVKRNIQKMGGHVEIQSKQGTGTTIRILLPLTLAILDGMSVRVADEVFILPLNAVMESLQPREADLHPLAGGERVLEVRGEYLPIVELWKVFNVAGAKTEATQGIVVILQSGGRRYALLVDQLIGQHQVVVKNLESNYRKVPGISAATILGDGSVALIVDVSALQAINREQRMANTAA | 
